Experimental findings from paper PMC2581521 (2008) are described below.

The assay has as its target T1, Chordin (Xenopus laevis, UniProt Q91713).
T1 chain: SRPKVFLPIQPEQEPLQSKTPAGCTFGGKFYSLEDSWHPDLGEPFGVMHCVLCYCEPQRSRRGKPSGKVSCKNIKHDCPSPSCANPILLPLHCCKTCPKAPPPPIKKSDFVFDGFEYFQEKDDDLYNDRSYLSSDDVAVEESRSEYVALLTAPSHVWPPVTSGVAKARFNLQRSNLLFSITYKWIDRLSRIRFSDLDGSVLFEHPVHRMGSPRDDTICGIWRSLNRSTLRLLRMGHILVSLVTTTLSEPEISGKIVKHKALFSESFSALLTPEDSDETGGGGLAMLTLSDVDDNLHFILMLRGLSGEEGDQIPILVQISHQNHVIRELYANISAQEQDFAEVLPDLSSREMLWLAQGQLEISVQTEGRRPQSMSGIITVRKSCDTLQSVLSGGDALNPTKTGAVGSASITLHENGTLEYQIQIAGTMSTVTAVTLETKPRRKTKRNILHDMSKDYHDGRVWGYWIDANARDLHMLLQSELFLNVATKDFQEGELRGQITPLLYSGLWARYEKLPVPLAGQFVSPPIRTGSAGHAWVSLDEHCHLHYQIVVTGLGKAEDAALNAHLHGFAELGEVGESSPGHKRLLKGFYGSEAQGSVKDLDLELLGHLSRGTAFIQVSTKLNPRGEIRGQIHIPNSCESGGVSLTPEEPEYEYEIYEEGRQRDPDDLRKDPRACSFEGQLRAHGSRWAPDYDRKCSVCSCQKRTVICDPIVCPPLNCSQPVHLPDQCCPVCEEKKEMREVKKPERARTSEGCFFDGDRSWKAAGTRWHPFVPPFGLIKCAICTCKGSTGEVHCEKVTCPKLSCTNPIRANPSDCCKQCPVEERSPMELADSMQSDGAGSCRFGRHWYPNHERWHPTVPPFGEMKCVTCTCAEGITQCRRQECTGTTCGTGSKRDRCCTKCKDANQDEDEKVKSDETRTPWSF
The assay can be described thus: SPR. In general terms: Surface plasmon resonance follows binding to a sensor surface in real time, without labels.

B1: Crossveinless-2 (protein)
chain: not shown
As a reminder, the Kd is the equilibrium constant for the complex coming apart. Low readings indicate higher affinity, high ones lower affinity. B1: the dissociation constant (Kd) stood at 1.37 nM.
